{
  "source": "patent US20170267730A1",
  "about": "(UNIVERSITY COURT OF THE UNIVERSITY OF EDINBURGH, published 2017)",
  "proteins": {"B1": {"name": "WT-BslA truncated, BslA42-181 (other)", "chain": "MRTQSTASLFATITGASKTEWSFSDIELTYRPNTLLSLGVMEFTLPSGFTANTKDTLNGNALRTTQILNNGKTVRVPLALDLLGAGEFKLKLNNKTLPAAGTYTFRAENKSLSIGNKFYAEASIDVAKRSTPPTQPCGCN", "notes": "In solution it is a mix of monomers and disulfide-linked dimers; also called wild-type biofilm-surface layer protein A; YuaB"}, "B2": {"name": "BslA-L77K truncated (other)", "chain": "B1 chain with L36K", "notes": "also called L77K BslA; L77K-BslA"}},
  "key": {"[1]": {"biological_target": "the molecule itself", "assay": "size-exclusion chromatography with multiangle light scattering (self-association in solution, disulfide-linked dimers)"}, "[2]": {"biological_target": "the molecule itself", "assay": "TEM, uranyl acetate stain (self-assembly into a 2D lattice)", "source_text": "Multiple domains of the WT-BslA lattice could be observed in any location on the grid. The observed domain areas varied from as small as 1000 nm² (˜50 BslA molecules) up to 200000 nm² (>10000 BslA molecules). Less ordered “inter-domain” areas were also observed. […] The largest BslA-L77K domain size observed was approximately […] (1250 BslA molecules)."}},
  "note": "Where a chain is given by its changes, count along the chain named. Names may count otherwise.",
  "data": [
    {"protein": "B1", "values": [
      {"measurement": "binding result", "setting": "[1]", "result": "binds"}
    ]},
    {"protein": "B2", "values": [
      {"measurement": "binding result", "setting": "[2]", "result": "binds"}
    ]}
  ]
}
